Measured values taken from patent publication US20070196376A1.

Experiments:
mouse insulin (mouse) = test: ELISA on mouse insulin; No Ag well 0.10
rat insulin (rat) = test: ELISA on rat insulin; No Ag well 0.10

Sequence of mouse insulin (mouse) (P01308 whole entry): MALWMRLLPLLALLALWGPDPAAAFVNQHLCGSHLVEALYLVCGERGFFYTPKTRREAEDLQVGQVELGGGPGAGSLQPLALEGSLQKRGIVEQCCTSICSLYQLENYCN

Substance: positive control anti-rat insulin antibody
- OD 450 (mouse insulin (mouse)): 2.52 OD 450
- OD 450 (rat insulin (rat)): 3.06 OD 450
